Each substance was assayed against FGFR3-IIIc (UniProt P22607) (assay: cell-based or functional assay).
Chain of FGFR3-IIIc (P22607 23-806): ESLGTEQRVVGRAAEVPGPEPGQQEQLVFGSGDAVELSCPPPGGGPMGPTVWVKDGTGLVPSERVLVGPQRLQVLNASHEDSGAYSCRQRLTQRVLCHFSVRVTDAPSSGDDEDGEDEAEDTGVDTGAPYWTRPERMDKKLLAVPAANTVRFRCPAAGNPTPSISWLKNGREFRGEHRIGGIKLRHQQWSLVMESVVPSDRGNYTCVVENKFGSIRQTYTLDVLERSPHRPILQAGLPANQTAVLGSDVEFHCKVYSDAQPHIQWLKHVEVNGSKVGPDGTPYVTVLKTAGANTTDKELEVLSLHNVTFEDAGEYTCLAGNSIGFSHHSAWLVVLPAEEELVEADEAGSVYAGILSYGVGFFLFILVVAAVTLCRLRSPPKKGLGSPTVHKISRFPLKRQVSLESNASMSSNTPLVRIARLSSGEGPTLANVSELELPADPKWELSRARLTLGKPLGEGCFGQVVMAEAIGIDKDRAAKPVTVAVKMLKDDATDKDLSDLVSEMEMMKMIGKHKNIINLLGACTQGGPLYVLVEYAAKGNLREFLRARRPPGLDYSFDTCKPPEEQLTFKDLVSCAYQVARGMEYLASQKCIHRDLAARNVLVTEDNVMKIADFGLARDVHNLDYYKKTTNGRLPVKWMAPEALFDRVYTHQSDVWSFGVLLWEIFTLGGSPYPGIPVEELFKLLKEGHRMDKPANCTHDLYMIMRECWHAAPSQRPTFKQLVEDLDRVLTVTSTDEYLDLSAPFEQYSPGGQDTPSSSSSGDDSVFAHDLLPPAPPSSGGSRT

Chain of FGF-18 delta33 (O76093 other isoform, or with tags, fused parts or gaps mutant limits assumed): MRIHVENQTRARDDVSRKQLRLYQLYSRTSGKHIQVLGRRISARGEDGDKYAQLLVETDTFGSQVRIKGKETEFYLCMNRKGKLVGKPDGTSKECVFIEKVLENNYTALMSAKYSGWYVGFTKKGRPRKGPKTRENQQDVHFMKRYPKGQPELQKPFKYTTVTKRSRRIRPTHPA
Chain of FGF18 - HA (234 Kd) conjugate (O76093 28-207 limits assumed): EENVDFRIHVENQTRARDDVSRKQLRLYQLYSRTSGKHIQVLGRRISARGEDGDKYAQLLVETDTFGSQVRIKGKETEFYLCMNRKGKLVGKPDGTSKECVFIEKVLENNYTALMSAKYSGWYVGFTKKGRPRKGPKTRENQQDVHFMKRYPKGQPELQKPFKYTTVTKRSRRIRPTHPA
Chain of FGF18 w.t. (O76093 28-207 limits assumed): as above
Chain of FGF18 Δ33 - HA (234 Kd) conjugate (O76093 34-207, tags or fused parts left off): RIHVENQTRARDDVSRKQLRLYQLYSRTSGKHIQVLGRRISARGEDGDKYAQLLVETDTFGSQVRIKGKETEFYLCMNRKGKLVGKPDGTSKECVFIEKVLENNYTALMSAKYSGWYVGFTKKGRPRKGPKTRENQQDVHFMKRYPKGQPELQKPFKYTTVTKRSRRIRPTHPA
Chain of FGF18 Δ51 - HA (234 Kd) conjugate (O76093 52-207, tags or fused parts left off): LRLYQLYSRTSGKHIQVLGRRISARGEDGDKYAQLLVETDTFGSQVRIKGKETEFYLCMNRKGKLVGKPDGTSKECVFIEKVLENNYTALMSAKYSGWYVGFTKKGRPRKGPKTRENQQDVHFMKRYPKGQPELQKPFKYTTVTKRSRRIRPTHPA
Chain of FGF-18 delta51 (O76093 other isoform, or with tags, fused parts or gaps mutant limits assumed): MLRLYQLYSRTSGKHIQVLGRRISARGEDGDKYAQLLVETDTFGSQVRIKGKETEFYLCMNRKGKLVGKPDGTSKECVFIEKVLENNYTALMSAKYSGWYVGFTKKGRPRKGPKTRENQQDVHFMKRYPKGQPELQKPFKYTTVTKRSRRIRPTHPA

Compared with “FGF2 conjugate with HA-hyd (10% hydrazido groups) - SMPH (from UniProt P09038 134-288) (ligand)”, “FGF2 conjugate with HA-hyd (40% hydrazido groups) - BMPS (from UniProt P09038 134-288) (ligand)” is higher in Mitogenic activity in FDCP cell lines assay, Conjugates EC50, +Hyaluronidase: < 5 ng/mL for the first, > 15 ng/mL for the second.

“FGF2 conjugate with HA-hyd (40% hydrazido groups) - SMPH (from UniProt P09038 134-288) (ligand)” and “FGF2 conjugate with HA-hyd (10% hydrazido groups) - EMCS (from UniProt P09038 134-288) (ligand)” cannot be ordered by Mitogenic activity in FDCP cell lines assay, Conjugates EC50, +Hyaluronidase: < 5 ng/mL for the first, < 5 ng/mL for the second.

“FGF2 conjugate with HA-hyd (10% hydrazido groups) - BMPS (from UniProt P09038 134-288) (ligand)” and “FGF2 conjugate with HA-hyd (10% hydrazido groups) - GMBS (from UniProt P09038 134-288) (ligand)” cannot be ordered by Mitogenic activity in FDCP cell lines assay, Conjugates EC50, +Hyaluronidase: < 5 ng/mL for the first, < 5 ng/mL for the second.

“FGF2 conjugate with HA-hyd (10% hydrazido groups) - SMPH (from UniProt P09038 134-288) (ligand)” and “FGF2 conjugate with HA-hyd (40% hydrazido groups) - BMPS (from UniProt P09038 134-288) (ligand)” cannot be ordered by Mitogenic activity in FDCP cell lines assay, Conjugates EC50, -Hyaluronidase: > 10 ng/mL for the first, > 15 ng/mL for the second.

Going from “FGF2 conjugate with HA-hyd (40% hydrazido groups) - SMPH (from UniProt P09038 134-288) (ligand)” to “FGF2 conjugate with HA-hyd (10% hydrazido groups) - EMCS (from UniProt P09038 134-288) (ligand)”, the Mitogenic activity in FDCP cell lines assay, Conjugates EC50, -Hyaluronidase rises from < 5 ng/mL to > 40 ng/mL.

“FGF2 conjugate with HA-hyd (10% hydrazido groups) - BMPS (from UniProt P09038 134-288) (ligand)” and “FGF2 conjugate with HA-hyd (10% hydrazido groups) - GMBS (from UniProt P09038 134-288) (ligand)” cannot be ordered by Mitogenic activity in FDCP cell lines assay, Conjugates EC50, -Hyaluronidase: > 20 ng/mL for the first, > 20 ng/mL for the second.

Point of comparison: “FGF2 (from UniProt P09038 134-288) (ligand)”, Mitogenic activity, FGFR-transfected FDCP cell lines assay (EC50) 1 ng/mL. Against it:
- FGF18 w.t. (from UniProt O76093 28-207) (ligand) — 5-fold higher, 5 ng/mL
- FGF-18 delta51 (from UniProt O76093 52-207) (ligand) — 5.5-fold higher, 5.5 ng/mL
- FGF-18 delta33 (from UniProt O76093 34-207) (ligand) — 3.5-fold higher, 3.5 ng/mL

“FGF2 - HA (234 Kd) conjugate (from UniProt P09038 134-288) (ligand)” and “FGF2 - CMC (90 Kd) conjugate (from UniProt P09038 134-288) (ligand)” cannot be ordered by Mitogenic activity FDCP-R3 (EC50): < 5 ng/mL for the first, < 3 ng/mL for the second.

“FGF2 - HA (74 Kd) conjugate (from UniProt P09038 134-288) (ligand)” and “FGF18 - HA (234 Kd) conjugate (from UniProt O76093 28-207) (ligand)” cannot be ordered by Mitogenic activity FDCP-R3 (EC50): < 5 ng/mL for the first, < 10 ng/mL for the second.

“FGF2 - CMC (250 Kd) conjugate (from UniProt P09038 134-288) (ligand)” and “FGF18 Δ51 - HA (234 Kd) conjugate (from UniProt O76093 52-207) (ligand)” cannot be ordered by Mitogenic activity FDCP-R3 (EC50): < 3 ng/mL for the first, < 12.5 ng/mL for the second.

“FGF2 - HA (17 Kd) conjugate (from UniProt P09038 134-288) (ligand)” and “FGF2 - HA (132 Kd) conjugate (from UniProt P09038 134-288) (ligand)” cannot be ordered by Mitogenic activity FDCP-R3 (EC50): < 3 ng/mL for the first, < 5 ng/mL for the second.

For “FGF18 Δ33 - HA (234 Kd) conjugate (from UniProt O76093 34-207) (ligand)”, the Mitogenic activity FDCP-R3 (EC50) was < 6.8 ng/mL.

“FGF2 (from UniProt P09038 134-288) (ligand)” showed a Mitogenic activity in FDCP cell lines assay (EC50) of 1 ng/mL.
